The values that follow are results of earlier work, collected in article PMC5319824.

“And” between values parts separate entries of the source, which are not always exact repeats. Equal values may be shown once. Read-outs that look alike come from different tables or passages of the source. Where only a bound is given, the exact number is not on record here.

Data set [1] concerns the target FtsZ (Escherichia coli) (UniProt P0A9A6).
The target is the same in data set [2]. This is another data set of the same source.
For data set [3] the target is unchanged. The source holds these as a separate data set.

FtsZ (Escherichia coli), sequence (P0A9A6 whole entry): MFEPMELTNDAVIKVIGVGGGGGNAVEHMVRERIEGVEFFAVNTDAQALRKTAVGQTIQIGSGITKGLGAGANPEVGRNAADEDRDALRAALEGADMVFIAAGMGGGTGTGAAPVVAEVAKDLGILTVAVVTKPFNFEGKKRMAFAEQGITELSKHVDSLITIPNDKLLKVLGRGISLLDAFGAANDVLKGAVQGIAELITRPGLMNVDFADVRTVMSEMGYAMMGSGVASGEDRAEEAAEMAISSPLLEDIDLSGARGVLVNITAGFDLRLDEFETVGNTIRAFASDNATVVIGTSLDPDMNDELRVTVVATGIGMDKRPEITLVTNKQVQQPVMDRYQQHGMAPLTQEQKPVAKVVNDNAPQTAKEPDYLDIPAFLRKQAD
FtsA, sequence (P0ABH0 whole entry): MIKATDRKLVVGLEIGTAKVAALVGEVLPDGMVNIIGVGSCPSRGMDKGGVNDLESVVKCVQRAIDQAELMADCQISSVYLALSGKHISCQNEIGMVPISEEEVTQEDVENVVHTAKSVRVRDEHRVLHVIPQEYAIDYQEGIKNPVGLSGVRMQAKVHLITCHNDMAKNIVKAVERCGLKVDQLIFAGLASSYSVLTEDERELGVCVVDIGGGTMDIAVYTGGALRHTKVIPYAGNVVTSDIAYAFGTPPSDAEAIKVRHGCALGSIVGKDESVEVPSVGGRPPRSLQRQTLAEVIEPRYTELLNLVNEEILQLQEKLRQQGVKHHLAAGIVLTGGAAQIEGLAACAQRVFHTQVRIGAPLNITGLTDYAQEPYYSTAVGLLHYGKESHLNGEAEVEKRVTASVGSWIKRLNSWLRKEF

Consider ZipA (from UniProt P77173), for which the equilibrium dissociation constant (Kd) was 0.4 µM in data set [1]; 30 µM and 140 µM in data set [2].

As for FtsA (from UniProt P0ABH0), in data set [3], the Kd is more than 40 µM.

Usually Kd stands for the free concentration of one partner at which half of the binding sites on the other are occupied at equilibrium, for simple one-to-one binding.
